Biological target: T1, human receptor activator of nuclear factor-κB (RANK) (human, UniProt Q9Y6Q6 30-212)
T1 sequence (looked up): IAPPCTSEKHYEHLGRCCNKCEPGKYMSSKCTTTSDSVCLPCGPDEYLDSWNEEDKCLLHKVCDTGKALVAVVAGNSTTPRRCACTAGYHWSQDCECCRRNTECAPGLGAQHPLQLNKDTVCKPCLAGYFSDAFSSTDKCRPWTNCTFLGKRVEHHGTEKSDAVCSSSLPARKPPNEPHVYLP
Assay: SPR

binding result: binds
B1: human receptor activator of nuclear factor-κB ligand (RANKL) (ligand, UniProt O14788 140-317, looked up)
chain: IRAEKAMVDGSWLDLAKRSKLEAQPFAHLTINATDIPSGSHKVSLSSWYHDRGWAKISNMTFSNGKLIVNQDGFYYLYANICFRHHETSGDLATEYLQLMVYVTKTSIKIPSSHTLMKGGSTKYWSGNSEFHFYSINVGGFFKLRSGEEISIEVSNPSLLDPDQDATYFGAFKVRDID
